Data as given in patent US20180100008A1 (VHSQUARED, published 2018).

B1: ID1C (bispecific antibody)
chain: DVQLQESGGGLVQAGGSLRLSCAASGATSDVYAIGWFRQVPGKEREFVATINRSGSDSYYADSVKGRFTISRDNAKNTVYLQMNSLKPEETAVYYCAASRSDCIGYGCRRVSQDYWGQGTQVTVSSGGGGSGGGGSGGGGSGGGGSDVQLQESGGGLVQAGGSLRLSCVISGMDFSHKPAGWFRQAPGKEREFVASITTRASTHYADSVKGRFTISRDNAKNTVYLEMNSLKPEDTAVYYCNSEYYWGQGTQVTVSSGGGGSGGGGSGGGGSGGGGSDVQLQESGGGLVQAGDSLRLSCAASGATLSSYTIGWFRQAPEKEREFVAGSSRDGRTNYYANSVKGRFTISRDNAKNTVYLQMNSLKPEDTAVYYCAAHTTSGVPVRERSYAYWGQGTQVTVSSGGGGSGGGGSGGGGSGGGGSDVQLQESGGGLVQAGGSLRLSCAASGATFSSYYIGWFRQAPGKEREFVAAINGSGGNRISADSVKGRFTISRDNAKNTVYLQLNSLKPEDTAVYYCAASLTYYGRSARYDYWGQGTQVTVSS
B2: ID3C (bispecific antibody)
chain: DVQLQESGGGLVQAGDSLRLSCAASGATLSSYTIGWFRQAPEKEREFVAGSSRDGRTNYYANSVKGRFTISRDNAKNTVYLQMNSLKPEDTAVYYCAAHTTSGVPVRERSYAYWGQGTQVTVSSGGGGSGGGGSGGGGSGGGGSDVQLQESGGGLVQAGGSLRLSCAASGATSDVYAIGWFRQVPGKEREFVATINRSGSDSYYADSVKGRFTISRDNAKNTVYLQMNSLKPEETAVYYCAASRSDCIGYGCRRVSQDYWGQGTQVTVSSGGGGSGGGGSGGGGSGGGGSDVQLQESGGGLVQAGGSLRLSCVISGMDFSHKPAGWFRQAPGKEREFVASITTRASTHYADSVKGRFTISRDNAKNTVYLEMNSLKPEDTAVYYCNSEYYWGQGTQVTVSSGGGGSGGGGSGGGGSGGGGSDVQLQESGGGLVQAGGSLRLSCAASGATFSSYYIGWFRQAPGKEREFVAAINGSGGNRISADSVKGRFTISRDNAKNTVYLQLNSLKPEDTAVYYCAASLTYYGRSARYDYWGQGTQVTVSS

Key:
[1] = target: T1, TcdB from C. difficile ribotype 087 (Clostridium difficile ribotype 087 …, UniProt P18177 2-2366); experiment: sandwich ELISA (figure legend)
T1 construct: also called 087 TcdB; 10463 (087)

[2] = target: T2, TcdB from C. difficile ribotype 027 (Clostridium difficile ribotype 027 …, UniProt P18177 2-2366); experiment: ELISA, TcdB coated, quadrahead detected with rabbit polyclonal anti-ICVD
T2 construct: also called 027 TcdB; R20291 (027)

[3] = target: T2, TcdB from C. difficile ribotype 027; experiment: sandwich ELISA: TcdB coated, quadrahead, then TcdA, rabbit anti-TcdA pAb
[4] = target: T1, TcdB from C. difficile ribotype 087; experiment: as above

| Binder | binding result [1] | binding result [2] | binding result [3] | binding result [4] |
| --- | --- | --- | --- | --- |
| B1 | binds | binds | – | – |
| B2 | – | – | binds | binds |
